The values that follow come from US20250122271A1, “ANTI-DKK1 ANTIBODY, PHARMACEUTICAL COMPOSITION THEREOF, AND USE THEREOF” (SHANGHAI JUNSHI BIOSCIENCES CO., LTD., priority 2022, published 2025).

Read-outs that look alike come from different tables or passages of the source.

For assay [1], the system named is advanced gynecological cancers. Conditions: patients with high expression of DKK1, stage 2 clinical; cited from earlier work.
Another assay relates to A549 cells. In words: A549 subcutaneous transplantation tumor model in CB17/SCID female mice. Format: in vivo. The conditions noted are these: day 35 after tumor inoculation; 5 mg/kg intraperitoneal once per week for 4 weeks. On the procedure:
The experimental animals were CB17/SCID female mice, and A549 cells (5× 10^6) were subcutaneously inoculated into the mice to establish a subcutaneous transplantation tumor model. […] The groups each had 6 animals, and the animals in all the groups were subjected to intraperitoneal injection. […] The efficacy was evaluated based on tumor growth inhibition (TGI) (FIG. 9).

The target of assay [2] is T1, human DKK1 antigen (Sino Biological, 10170-H08H) (human, UniProt O94907 32-266).
T1 chain: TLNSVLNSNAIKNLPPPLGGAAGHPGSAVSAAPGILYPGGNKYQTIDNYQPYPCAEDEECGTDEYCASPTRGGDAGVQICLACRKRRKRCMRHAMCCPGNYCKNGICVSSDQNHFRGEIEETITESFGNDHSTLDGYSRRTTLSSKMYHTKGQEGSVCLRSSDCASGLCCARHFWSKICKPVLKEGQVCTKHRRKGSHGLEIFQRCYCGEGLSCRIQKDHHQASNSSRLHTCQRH
In words: ELISA blocking of DKK1-LRP6. A general note: An ELISA detects its analyte on a solid surface through an enzyme-linked reagent.

Assay [3] concerns the target T1, human DKK1 antigen (Sino Biological, …). As to the kind of experiment: ELISA blocking of DKK1-LRP6.
Assay [4] shares this target. As to the kind of experiment: ELISA binding; given as IC50; FIG. 4A.
For assay [5] the target is unchanged. In words: ELISA binding; FIG. 4B.

On to “DKN-01: positive control anti-DKK1 monoclonal antibody; heavy and light chains SEQ ID NO: 108 and SEQ ID NO: 109”, for which, in assay [1], the disease control rate is 57% and the objective remission rate is given as 14%. Further, in the assay with A549 cells, the “tumor growth inhibition (TGI)” value was determined as 23.27%.

B1: DKN-01 (antibody, V domains shown)
VH: EVQLVESGGGLVQPGGSLRLSCAASGFTFSSYTMSWVRQAPGKGLEWVATISGGGFGTYYPDSVKGRFTISRDNAKNSLYLQMNSLRAEDTAVYYCARPGYNNYYFDIWGQGTTVTVSS
VL: EIVLTQSPATLSLSPGERATLSCHASDSISNSLHWYQQKPGQAPRLLIYYARQSIQGIPARFSGSGSGTDFTLTISSLEPEDFAVYYCQQSESWPLHFGGGTKVEIKR
One may read the IC50 as the concentration at which inhibition is half-maximal. Read a high IC50 as weaker potency. By EC50 is commonly meant the concentration that produces a half-maximal response. High values mean lower potency in that assay, low ones higher potency in that assay. On to B1, for which the figures for the IC50 in assay [2] and in assay [3] were 0.324 µg/mL and 1.24 µg/mL, respectively. The EC50 stood at 0.0148 µg/mL in assay [4] and 0.0154 µg/mL in assay [5].
